Target: mini-procollagen III
Assay: SPR
Conditions: 50 nM CUB1CUB2*, read off a plot; for response: immobilized mini-procollagen III (437 RU), parent: est. 31; for percent of parent (% binding / WT): immobilized mini-procollagen III (437 and 651 RU), parent: est. 100

Sequence of CUB1CUB2* domains of PCPE-2, WT (from MBP-CUB1CUB2, MBP removed) (Q9UKZ9 whole entry, looked up, stated change not applied, tested part not stated): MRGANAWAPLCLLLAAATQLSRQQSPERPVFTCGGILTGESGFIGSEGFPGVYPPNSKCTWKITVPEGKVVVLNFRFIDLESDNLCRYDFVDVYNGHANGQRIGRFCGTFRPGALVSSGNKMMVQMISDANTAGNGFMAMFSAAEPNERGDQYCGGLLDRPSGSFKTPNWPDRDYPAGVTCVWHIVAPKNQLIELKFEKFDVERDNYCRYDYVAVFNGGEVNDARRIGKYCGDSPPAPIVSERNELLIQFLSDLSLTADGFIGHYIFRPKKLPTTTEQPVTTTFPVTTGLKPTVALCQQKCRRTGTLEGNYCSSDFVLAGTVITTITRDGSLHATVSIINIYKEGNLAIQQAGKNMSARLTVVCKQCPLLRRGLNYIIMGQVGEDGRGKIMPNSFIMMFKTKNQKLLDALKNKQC

response [RU]	percent of parent (% binding / WT)	Substance
1	2	CUB1CUB2* domains of PCPE-2, WT (from MBP-CUB1CUB2, MBP removed) (from UniProt Q9UKZ9) F87A
8.5	22	CUB1CUB2* domains of PCPE-2, WT (from MBP-CUB1CUB2, MBP removed) (from UniProt Q9UKZ9) K46A; E197A; R220A
27	97	CUB1CUB2* domains of PCPE-2, WT (from MBP-CUB1CUB2, MBP removed) (from UniProt Q9UKZ9) R150A

Source: PMC10696041
